Here are results for 2 molecules from article PMC2743173 (Neuron, 2008).

The target in test [1] is LRP4N-Myc (UniProt Q9QYP1). In words: ELISA. (An ELISA detects its analyte on a solid surface through an enzyme-linked reagent.)
The target in test [2] is LRP4N-Myc (UniProt Q9QYP1 21-1723). In words: ELISA.
LRP4N-Myc (UniProt Q9QYP1 21-1723), sequence (Q9QYP1 21-1723): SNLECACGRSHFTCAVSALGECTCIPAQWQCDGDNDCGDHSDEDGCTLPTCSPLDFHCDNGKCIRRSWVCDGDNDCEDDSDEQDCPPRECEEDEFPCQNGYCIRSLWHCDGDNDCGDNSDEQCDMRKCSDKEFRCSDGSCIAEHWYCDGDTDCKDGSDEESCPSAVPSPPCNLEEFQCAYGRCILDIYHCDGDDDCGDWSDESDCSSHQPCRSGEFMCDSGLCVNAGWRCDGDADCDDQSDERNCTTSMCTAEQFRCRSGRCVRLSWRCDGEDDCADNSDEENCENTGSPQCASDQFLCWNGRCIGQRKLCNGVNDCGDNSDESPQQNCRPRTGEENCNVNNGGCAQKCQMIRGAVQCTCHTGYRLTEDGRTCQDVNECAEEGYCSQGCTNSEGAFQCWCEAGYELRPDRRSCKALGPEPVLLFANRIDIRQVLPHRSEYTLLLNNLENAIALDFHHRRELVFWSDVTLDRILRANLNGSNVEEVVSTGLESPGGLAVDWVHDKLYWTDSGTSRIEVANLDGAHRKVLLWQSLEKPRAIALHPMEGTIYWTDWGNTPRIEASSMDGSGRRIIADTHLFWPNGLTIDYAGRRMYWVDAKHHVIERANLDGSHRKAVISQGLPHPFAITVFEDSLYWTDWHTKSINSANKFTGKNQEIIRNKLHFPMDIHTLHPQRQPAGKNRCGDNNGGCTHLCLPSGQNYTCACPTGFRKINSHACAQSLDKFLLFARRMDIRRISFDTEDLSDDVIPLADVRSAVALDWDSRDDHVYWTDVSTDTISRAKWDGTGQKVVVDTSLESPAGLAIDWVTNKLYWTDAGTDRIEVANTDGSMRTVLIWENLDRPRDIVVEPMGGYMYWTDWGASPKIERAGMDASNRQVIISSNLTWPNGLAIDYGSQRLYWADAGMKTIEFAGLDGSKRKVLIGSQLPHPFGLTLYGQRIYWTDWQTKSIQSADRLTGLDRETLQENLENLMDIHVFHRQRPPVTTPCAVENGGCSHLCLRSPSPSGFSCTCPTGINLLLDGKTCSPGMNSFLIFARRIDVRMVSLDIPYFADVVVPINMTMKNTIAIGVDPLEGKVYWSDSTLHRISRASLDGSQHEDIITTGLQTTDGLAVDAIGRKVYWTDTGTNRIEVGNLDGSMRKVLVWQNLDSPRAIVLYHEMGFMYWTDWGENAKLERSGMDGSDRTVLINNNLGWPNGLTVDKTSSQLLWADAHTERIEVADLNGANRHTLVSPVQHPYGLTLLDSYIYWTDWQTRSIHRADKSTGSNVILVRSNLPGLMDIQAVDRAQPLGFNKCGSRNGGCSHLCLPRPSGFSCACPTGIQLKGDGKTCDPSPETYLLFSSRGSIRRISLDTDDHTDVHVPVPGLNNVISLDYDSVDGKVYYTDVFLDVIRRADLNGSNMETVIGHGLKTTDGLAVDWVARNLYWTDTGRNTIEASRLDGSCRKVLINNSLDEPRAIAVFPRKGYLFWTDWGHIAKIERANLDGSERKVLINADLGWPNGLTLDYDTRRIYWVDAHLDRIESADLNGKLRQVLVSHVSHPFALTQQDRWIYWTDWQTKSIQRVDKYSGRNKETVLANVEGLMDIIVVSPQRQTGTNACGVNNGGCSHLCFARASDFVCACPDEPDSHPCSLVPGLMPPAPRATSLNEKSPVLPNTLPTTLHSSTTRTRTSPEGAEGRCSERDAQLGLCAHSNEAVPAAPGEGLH

LRP4N-Myc (UniProt Q9QYP1), sequence (Q9QYP1 21-1723): as above

Take nAgrin-AP (domain or fragment): the Kd (as a rule, a measure of binding affinity in units of concentration) in test [1] was 0.5 nM.

B1: MuSK-AP (domain or fragment)
chain: EKLPKAPVITTPLETVDALVEEVATFMCAVESYPQPEISWTRNKILIKLFDTRYSIRENGQLLTILSVEDSDDGIYCCIANNGVGGAVESCGALQVKMKPKITRPPINVKIIEGLKAVLPCTTMGNPKPSVSWIKGDNALRENSRIAVLESGSLRIHNVQKEDAGQYRCVAKNSLGTAYSKLVKLEVEVFARILRAPESHNVTFGSFVTLRCTAIGIPVPTISWIENGNAVSSGSIQESVKDRVIDSRLQLFITKPGLYTCIATNKHGEKFSTAKAAATVSIAEWSKSQKDSQGYCAQYRGEVCDAVLAKDALVFFNTSYRDPEDAQELLIHTAWNELKAVSPLCRPAAEALLCNHLFQECSPGVVPTPMPICREYCLAVKELFCAKEWQAMEGKAHRGLYRSGMHLLPVPECSKLPSMHRDPTACTRLPYLDYKKENITTFPSITSSRPSADIPNLPASTSSFAVSPAYSMT
The molecule B1 showed a Kd in test [2] of 0.45 ± 0.041 nM.
